Experimental data: publication PMC7482061

How the values were obtained:
Test in all cases: SEC; Superdex S200 10/300 GL, buffer A (20 mM Tris-HCl pH 7.5, 18% glycerol) with 150 mM NaCl; mass from calibration with standard proteins; quaternary structure of the purified protein
[1] = target: FdpA (CD1157), class A flavodiiron protein of Clostridioides difficile (Clostridioides difficile)
[2] = target: revRbr1 (CD1474), reverse rubrerythrin 1 of Clostridioides difficile (Clostridioides difficile (strain 630Δerm genomic DNA))
[3] = target: revRbr2 (CD1524), reverse rubrerythrin 2 of Clostridioides difficile (Clostridioides difficile (strain 630Δerm genomic DNA))

Substance: FdpA (CD1157), class A flavodiiron protein of Clostridioides difficile (enzyme)
- stoichiometry N [1]: 2

Substance: revRbr1 (CD1474), reverse rubrerythrin 1 of Clostridioides difficile (enzyme)
- stoichiometry N [2]: 4

Substance: revRbr2 (CD1524), reverse rubrerythrin 2 of Clostridioides difficile (enzyme)
- stoichiometry N [3]: 4
